Limit of detection of the toxin by VAMPtide cleavage, lowest toxin concentration detected by substrate cleavage (fluorescence) and increase of binding data for 2 substances are collected here from patent US20140287433A1.

Assay [1] has as its target VAMPtide (o-Abz/Dnp) (List Biological Laboratories, Inc.). The assay is described as follows: cell-based or functional assay.
Assay [2] addresses PL150 (Pharmaleads): [(Ac-60-94)VAMP](Pya74,Nop77). In words: cell-based or functional assay.
For assay [3], the target named is GST-Synaptotagmin II (SytII) fusion protein (rat).

In assay [1], “purified 150 kDa BoNT/B from C. botulinum strain Okra B (Metabiologics Inc.)” yielded a limit of detection of the toxin by VAMPtide cleavage of 2 nM and a lowest toxin concentration detected by substrate cleavage (fluorescence) of 2 nM. The substance also showed a lowest toxin concentration detected by substrate cleavage (fluorescence) in assay [2] of 10 pM. For the same substance, in assay [3], the increase of binding at pH 5.2 against pH 7.2 amounted to 100%.
In assay [1], “BoNT/B complex from C. botulinum strain Okra B (Metabiologics Inc.) (from UniProt B1INP5 2-1291)” returned a limit of detection of the toxin by VAMPtide cleavage of 5 nM.
